In IntAct's records for PubMed 19617557:

B1: Gamma-aminobutyric acid receptor subunit beta-3 (Rattus norvegicus (Rat)), P63079 (parent)
chain: MWGFAGGRLFGIFSAPVLVAVVCCAQSVNDPGNMSFVKETVDKLLKGYDIRLRPDFGGPPVCVGMNIDIASIDMVSEVNMDYTLTMYFQQYWRDKRLAYSGIPLNLTLDNRVADQLWVPDTYFLNDKKSFVHGVTVKNRMIRLHPDGTVLYGLRITTTAACMMDLRRYPLDEQNCTLEIESYGYTTDDIEFYWRGGDKAVTGVERIELPQFSIVEHRLVSRNVVFATGAYPRLSLSFRLKRNIGYFILQTYMPSILITILSWVSFWINYDASAARVALGITTVLTMTTINTHLRETLPKIPYVKAIDMYLMGCFVFVFLALLEYAFVNYIFFGRGPQRQKKLAEKTAKAKNDRSKSEINRVDAHGNILLAPMDVHNEMNEVAGSVGDTRNSAISFDNSGIQYRKQSMPKEGHGRYMGDRSIPHKKTHLRRRSSQLKIKIPDLTDVNAIDRWSRIVFPFTFSLFNLVYWLYYVN

Variants of: B1
Conditions: with ap2m1_rat Ap2m1, P84092
ap2m1_rat Ap2m1, P84092, sequence (P84092 whole entry): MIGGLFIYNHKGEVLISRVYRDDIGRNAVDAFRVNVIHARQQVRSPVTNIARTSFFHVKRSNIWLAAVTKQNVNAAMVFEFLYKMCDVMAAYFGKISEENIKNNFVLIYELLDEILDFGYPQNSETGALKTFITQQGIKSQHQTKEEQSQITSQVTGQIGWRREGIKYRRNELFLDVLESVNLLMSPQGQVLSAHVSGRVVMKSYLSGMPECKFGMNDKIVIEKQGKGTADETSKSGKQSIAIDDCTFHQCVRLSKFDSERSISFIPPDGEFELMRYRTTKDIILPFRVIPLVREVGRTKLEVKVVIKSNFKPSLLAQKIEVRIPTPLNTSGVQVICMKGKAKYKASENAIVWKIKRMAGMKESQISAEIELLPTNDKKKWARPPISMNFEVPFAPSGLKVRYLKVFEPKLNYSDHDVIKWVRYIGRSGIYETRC

Question: For MWGFAGGRLFGIFSAPVLVAVVCCAQSVNDPGNMSFVKETVDKLLKGYDIRLRPDFGGPPVCVGMNIDIASIDMVSEVNMDYTLTMYFQQYWRDKRLAYSGIPLNLTLDNRVADQLWVPDTYFLNDKKSFVHGVTVKNRMIRLHPDGTVLYGLRITTTAACMMDLRRYPLDEQNCTLEIESYGYTTDDIEFYWRGGDKAVTGVERIELPQFSIVEHRLVSRNVVFATGAYPRLSLSFRLKRNIGYFILQTYMPSILITILSWVSFWINYDASAARVALGITTVLTMTTINTHLRETLPKIPYVKAIDMYLMGCFVFVFLALLEYAFVNYIFFGRGPQRQKKLAEKTAKAKNDRSKSEINRVDAHGNILLAPMDVHNEMNEVAGSVGDTRNSAISFDNSGIQYRKQSMPKEGHGRYMGDRSIPHKKTHLRRRAAQLKIKIPDLTDVNAIDRWSRIVFPFTFSLFNLVYWLYYVN [S432A;S433A], which “effect of a mutation on the interaction” value is on record?
Answer: The value was “decreasing interaction strength”.
